Assay results: patent US20260125454A1 (SHANGHAI JUNSHI BIOSCIENCES, published 2026)
Each block holds one binder with its values, some of them ahead of it. Bridges are numbered along the chain shown (N, C = ends). Where no end group is shown, it is not given here. The star is where a group is joined. Biotin = O=C1N[C@H]2[C@H](CS[C@H]2CCCCC(=O)*)N1

Experiments:
[1] = target: T1, synthetic human α-CGRP polypeptide (SEQ ID NO: 97)-NH2 (human, C-terminal phenylalanine amide (F-NH2); one intrachain disulfide bond between the two CYS residues (printed as positions 7 and 12)); assay: BLI (Octet), antibody on AHC2, 50 nM CGRP; association pH 7.4, dissociation pH 5.5
T1 construct: Analyte in solution (50 nM) in the pH-dependence BLI assay
T1 peptide: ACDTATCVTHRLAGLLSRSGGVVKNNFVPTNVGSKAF
Experimental: (§1) The association/dissociation profiles for three antibodies Hu224, galcanezumab analogue and fremanezumab analogue binding to the antigen human α-CGRP in solutions at different pH (7.4 and 5.5) were determined on an Octet RBD96e system. The pH 7.4 buffer contained 10 mM HEPES (pH 7.4), 150 mM sodium chloride, 3 mM EDTA, and 0.05% P20. The pH 5.5 buffer contained 10 mM NaAc (pH 5.5), 150 mM sodium chloride, and 0.05% P20. The three antibodies Hu224, galcanezumab analogue, and fremanezumab analogue were immobilized on the surfaces of AHC2 bioprobes (Sartorius, Cat. No. 18-5142) at 10 μg/mL, respectively. 50 nM human α-CGRPs diluted in different pH (7.4 and 5.5) buffers were used to bind to the antibodies during the 0 to 200 s antigen association phase, and different pH (7.4 and 5.5) buffers were used to wash during the 0 to 200 s antigen dissociation phase. The conditions were pH 7.4 association and pH 7.4 dissociation, pH 7.4 association and pH 5.5 dissociation, and pH 5.5 association and pH 5.5 dissociation. The binding signals of the antigen at the time of injection for 200 s were calculated using analytical software and fitted to give the dissociation constant kd. The amino acid sequence of the synthetic human α-CGRP polypeptide fragment is […] […]

CGRP antigen = assay: cell-based or functional assay
[2] = target: T1, synthetic human α-CGRP polypeptide (SEQ …); assay: BLI (Octet), antibody on AHC2, 50 nM CGRP; association pH 5.5, dissociation pH 5.5
Experimental: as §1

Biotin-huCGRPaSA = target: T2, Biotin-huCGRPaSA (human, not fully specified; biotin (position not given)); assay: ELISA, supernatant; relative to chimeric C245
T2 construct: exact construct ('aSA') not explained; also called Biotin CGRPaSA; full-length (1-37) CGRP
T2 peptide: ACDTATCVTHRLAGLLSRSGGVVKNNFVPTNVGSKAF
Method in brief: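 Antibodies, including reference chimeric C245, titrated 2.5-fold from 1000 ng/mL and incubated 60 min at 37°C on wells coated with 1.0 μg/mL biotin-CGRPaSA and blocked with 2% BSA. Bound IgG detected with HRP anti-human Fc antibody and TMB, acid-stopped, absorbance 450/620 nm.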

[3] = target: T1, synthetic human α-CGRP polypeptide (SEQ …); assay: BLI (Octet), antibody on AHC2, 50 nM CGRP; association pH 7.4, dissociation pH 7.4
Experimental: as §1

hCGRP(1-13) [4] = target: T3, hCGRP(1-13) (human, disulfide 7-12); assay: BLI (Octet); hCGRP (1-13) against the fragments holding 8-19
T3 construct: also called polypeptide 1-13
T3 peptide: Biotin-GGGGGACDTATCVTHRLA
Experimental: (§2) The kinetic parameters of C245 Fab (Fab monomer fragments derived from antibody C245) binding to six synthetic human CGRP alpha polypeptide fragments (polypeptide 1-13, polypeptide 1-19, polypeptide 1-37, polypeptide 8-19, polypeptide 8-26, and polypeptide 13-24) were determined on an Octet RBD 96e system. Human CGRP synthetic polypeptide fragments were immobilized on the surfaces of SA bioprobes (Sartorius, Cat. No. 18-5019) at the following concentrations: 46.5 nM for hCGRP (1-13), 8.5 nM for CGRP (1-19), 15.5 nM for hCGRP (1-37), 8.5 nM for hCGRP (8-19), 15.5 nM for hCGRP (8-26), and 46.5 nM for hCGRP (13-24). The immobilized synthetic human CGRP polypeptide fragments were bound to 45 nM of C245 Fab and the binding dissociation curves were fitted using analytical software.

hCGRP(13-24) = target: T4, hCGRP(13-24) (human); assay: BLI (Octet), biotin-peptide on SA probe
T4 construct: also called polypeptide 13-24
T4 peptide: Biotin-GGGGGAGLLSRSGGVVK
Experimental: as §2

hCGRP(1-13) [5] = target: T3, hCGRP(1-13); assay: BLI (Octet), biotin-peptide on SA probe, 45 nM Fab
Experimental: as §2
(§3) The kinetic parameters of hu224 Fab (Fab monomer fragments derived from humanized antibody hu224) binding to four synthetic human CGRP alpha polypeptide fragments (polypeptide 1-13, polypeptide 1-19, polypeptide 1-37, and polypeptide 8-19) were determined on an Octet RBD 96e system. Human CGRP synthetic polypeptide fragments were immobilized on the surfaces of SA bioprobes (Sartorius, Cat. No. 18-5019) at the following concentrations: 8.5 nM for CGRP (1-19), 15.5 nM for hCGRP (1-37), 10 nM for hCGRP (8-19), and 15.5 nM for hCGRP (8-26). The immobilized synthetic human CGRP polypeptide fragments were bound to 45 nM of hu224 Fab and the binding dissociation curves were fitted using analytical software.

hCGRP(1-19) = target: T5, hCGRP(1-19) (human, N-terminal biotin; CYS residues at positions 7 and 12 theoretically form 1 intrachain disulfide bond); assay: BLI (Octet), biotin-peptide on SA probe, 45 nM Fab
T5 construct: also called polypeptide 1-19
T5 peptide: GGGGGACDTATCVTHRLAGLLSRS
Experimental: as §2, §3

hCGRP(8-26) = target: T6, hCGRP(8-26) (human, N-terminal biotin); assay: BLI (Octet), biotin-peptide on SA probe, 45 nM Fab
T6 construct: also called polypeptide 8-26
T6 peptide: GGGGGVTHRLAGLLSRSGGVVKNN
Experimental: as §2, §3

hCGRP(8-19) = target: T7, hCGRP(8-19) (human); assay: BLI (Octet), biotin-peptide on SA probe, 45 nM Fab
T7 construct: also called polypeptide 8-19
T7 peptide: Biotin-GGGGGVTHRLAGLLSRS
Experimental: as §2, §3

hCGRP(1-37) = target: T8, hCGRP(1-37) (human, N-terminal biotin; C-terminal phenylalanine amide (F-NH2); CYS residues at positions 7 and 12 theoretically form 1 intrachain disulfide bond); assay: BLI (Octet), biotin-peptide on SA probe, 45 nM Fab
T8 construct: also called polypeptide 1-37; full-length hCGRP (1-37) polypeptide
T8 peptide: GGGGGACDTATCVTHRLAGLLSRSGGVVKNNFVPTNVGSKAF
Experimental: as §2, §3

koff [1]: 0.0143 s⁻¹
IC50 (CGRP antigen): 0.0224 µg/mL
relative activity (%) vs C245 (CGRP antigen): 80%
koff [2]: 0.0141 s⁻¹
Relative binding activity, % (Biotin-huCGRPaSA): 82%
koff [3]: 0.000265 s⁻¹
B1: hu224 (antibody, human IgG4 S228P, kappa, V domains shown)
VH: QVQLVQSGAEVKKPGASVKVSCKASGYSFTGYTMNWVRQAPGQRLEWMGLINPYIGNTHYNQKFKDRVTFTVDRSSSTAYMELSSLRSEDTAVYYCARELDSGFDYWGQGTLVTVSS
VL: DVVMTQSPDSLAVSLGERATINCRSSQNIVHSNGDTYLEWYQQKPGQPPKLLIYKVSNRFSGVPDRFSGSGSGTDFTLTISSLQAEDVAVYYCYQGSHVPWTFGQGTKLEIKR

fold decrease in affinity (hCGRP(1-13) [4]): 100 fold
binding result (hCGRP(13-24)): no binding (tested: 45 nM)
Kd (hCGRP(1-13) [5]): 24.4 nM
koff (hCGRP(1-13) [5]): 0.0172 s⁻¹
kon (hCGRP(1-13) [5]): 704000 M⁻¹ s⁻¹
Kd (hCGRP(1-19)): 0.0721 nM
koff (hCGRP(1-19)): 2.58e-05 s⁻¹
kon (hCGRP(1-19)): 357000 M⁻¹ s⁻¹
Kd (hCGRP(8-26)): 0.952 nM
koff (hCGRP(8-26)): 0.000316 s⁻¹
kon (hCGRP(8-26)): 332000 M⁻¹ s⁻¹
Kd (hCGRP(8-19)): 0.252 nM
koff (hCGRP(8-19)): 9.32e-05 s⁻¹
kon (hCGRP(8-19)): 360000 M⁻¹ s⁻¹
Kd (hCGRP(1-37)): 0.249 nM
koff (hCGRP(1-37)): 6.95e-05 s⁻¹
kon (hCGRP(1-37)): 280000 M⁻¹ s⁻¹
B2: C245 Fab (Fab, V domains shown)
VH: EVQLQQSGPELVKPGASMKISCKASGYSFTGYTMNWVKQSHGNNLEWIGLINPYIGNTHYNQKFKDKATFTVDRSSSTAYMALLSLTSEDSAVYYCARELDSGFDYWGQGTTLTVSS
VL: DVLMTQTPLSLPVSLGDQASLSCRSSQNIVHSNGDTYLEWYLQKPGQSPKLLIYKVSNRFSGVPDRFSGSGSGTDFTLKISRVEAEDLGVYYCYQGSHVPWTFGGGTKLEIK
notes: Fab of chimeric C245; also called Fab monomer fragments derived from antibody C245
